Values joined by “and” are separate entries in the source; they are usually repeats but may differ in a detail not shown here. Equal entries are not always repeated.
Target: allophycocyanin (AP) (Synechococcus elongatus PCC 7942)
Assay: cryo-EM structure

stoichiometry N: 3 and 6
Substance: allophycocyanin (AP) (complex)
